# Measured values published in US20020065240A1.
# B1: recombinant human VEGF145, P15692 207-395 (ligand)
# chain: APMAEGGGQNHHEVVKFMDVYQRSYCHPIETLVDIFQEYPDEIEYIFKPSCVPLMRCGGCCNDEGLECVPTEESNITMQIMRIKPHQGQHIGEMSFLQHNKCECRPKKDRARQEKKSVRGKGKGQKRKRKKSRYKSWSVCDKPRR
# Target: VEGF mitogenic receptors
# Test: cell-based or functional assay
binder,measurement,value
B1,"half-maximal activity, HUVEC mitogenesis ([3H]thymidine incorporation)",17 to 19 ng/mL
